Experiment: yeast display, Sf9 membrane polyspecificity reagent, FACS + sequencing; frameworks hold sequencing errors
Procedure, shortened: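 Synthetic nanobody libraries on Saccharomyces cerevisiae BJ5465 were galactose-induced for 36–48 hours, stained 1 hour at 4 °C with 10% biotinylated, detergent-solubilized Sf9 membrane reagent and enriched on streptavidin microbeads. FACS then separated cells into low and high (top ~1%) gates by anti-HA (expression) and streptavidin (reagent binding) fluorescence. Genes were colony-PCR amplified, MiSeq 2 × 250 sequenced and CDR-length filtered. A clone's polyreactivity label is that of its gate of origin.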

Row | Sequence | polyreactivity (PSR sort gate)
1 | QVQLVESGGGLVQAGGSLRLSCAASARTYGNYAMGWYREAPGKERELVADITRRGGSTSYADSVKGRFTISRDNAKNTVYLQMNSLKPEDTAVYYCNKRTTPYYAQGISRLEYDYWGQGTQVTVSS | low polyreactivity
2 | QVQLVESGGGLVQAGGSLRLSCAASGSTFEGNAMGWYRQAPGKERELVAAISSGGRTYYADSVKGRFTISRDNAKNTVYLQMNSLKPEDTAVYYCAAYVRRGFDWGQGTQVTVSS | high polyreactivity
3 | QVQLHGSGGGLVQAGCSLRVSCAASGYIFQNVPMGWTRQAPGKERELVAGIDNGTSTNYADSVNGRFTISRDNAKNTVYMQMNSLKPEDTAVYYCAAAGQADDTLGYWGQGTQVTVSS | low polyreactivity
4 | QVQLVESGGGLVQAGGSLRLSCAASGNTLAKYAMGWYRQAPGKERELVAAISWSGGRTFYADSVKGRFTISRDNAKNTVYLQMNSLKPEDSAVYYCNKVKGQSFSSYGYWGQGTQVTVSS | high polyreactivity
5 | QVQLVESGGGLVQAGGSLRLSCAASGRTFDVYTMGWYRQAPGKERELVAAINGGGSTYYADSVKGRFTISRDNAKNTVYSQMNSLKPEDTAVYYCAAKFRAGRSSYYWGQGTQVTVSS | high polyreactivity
6 | QVQLVESGGGLVQAGGSLRLSCAASGYTFSRYAMGWYRQAPGKERELVAAISHSAGRTYYADSVKGRFTISRDNAKNTVYLQMNSLKPEDTAVYYCATAYKPDTRDDYWGQGTQVTVSS | high polyreactivity
7 | HVQLVESGGGLVQAGGSLRLSCAASGFTFGYYAMGWYRQAPGKERELVAAISSSGGSTYYADSVKGRFTISRDNAKNTVYLQMNSLKPEDTAVYFCAVVVFSRVYRYFTSDYWGQGTQVTVSS | high polyreactivity
8 | QVQLVESGGGLVQAGGSLRLSCAASGSTFAKNAMGVYRQAPGKERELVAAISRGGNTYYADSVKGRFTISRDNAKITVYLLMNSLKPEDTAVYYCAARYLFRSLNMDYWGQVTQVTVSS | high polyreactivity
9 | QVQLVESGGGLVQAGGSLSLSCAASGSTFYYNAMGWYRQAPGKEREFVAAINWRGGSTYYADSVKGRFTISRDNAKNTVYLQMNSLKPEDTAVYYCSAEEASTYYYVRSGYDYHFWEMYSWGQGTQVTVSS | low polyreactivity
10 | QVQLVESGGGLVQAGGSLRLSCAASGSIFSGYAMGWYRQAPGKERELVAAITRSGGRTYYADSVKGRFTISRDNAKNTVYLQMNSLKPEDTAVYYCATLPRYYGYWGQGTQVTVSS | high polyreactivity
11 | QVQLVESGGGLVQAGCSLRLSCADSGLTFTFYAMGWYRQAPGKVRELVAAISTSGASTYYADSVKGRFTISRDNANNTVYLQMNSLKPEDTAVYYCAAEYSYSSYLWYDYWGQGTQVTVSS | high polyreactivity
12 | QVQLVESGGGLVQAGGSLRLSCAASGSIFTLYAMGWYRQAPGKDRELVATINWSGGSTSYADSGKGRFTISRDNAKNTVYLQMNSLKPEETAVYYCARLGTYTVVTYDYWGQGTQVTVSS | low polyreactivity
13 | QVQLVESGGCLVQAGGSLRLSCAASGRIFPGYAMGWYRQAPGKESEFVAAITASGGTTYYADSVKGRFTISRDNAKNTVYLQMNCLKPEDTAVYYCAKYRYTVAGYNYWGQGTQVTVSS | high polyreactivity
14 | QVQLVESGGGLVQAGGSLRLSSAASGRTFYSNAMGWYRQAPGKEREFVAAINWSGTSTYADSVKGRFTISRDNAKNTVYLQMNSLKPEDTAVYYCAKTYRTLVRYWGQPFGYWGQGTQVTVSS | high polyreactivity
15 | QVQLVESGGGLVQAGGSLRLSCAASGRISNRYAMGWYRQAPGKERELVAAIRRSTTSTYADSVKGRFTISRDNEKNTFYLQMNSLKPEYTAVYYCAARGGRRGGYYSWGQGTQVTVSA | high polyreactivity
16 | QVQLVESGGGLVQAGGSLRLSCADSGSTFPWYAMGWYRQAHGKERELVADISFSGGSTYYSDSVKGRFTISRDNAKNTVYLQMNSLKPEDTAVYYCASETSFLRHAYQSDSFDYWGQGTQVTVSS | high polyreactivity
17 | QVQLVESGGGLVQAGGSLRLSCAASGSIFYENVMGWYRQAPGKERELVAGISRSGGRTYYADSVKGRFTISRDNAKNTVYFQMNSLKPEDTAVYYCAALTPRNRYRKFDYWGQGTQVTVSS | high polyreactivity

Reference: the nanobody polyreactivity screen of Harvey et al. (2022)
